Test results taken from PMC5663884, “Compositional and expression analyses of the glideosome during the Plasmodium life cycle reveal an additional myosin light chain required for maximum motility” (The Journal of Biological Chemistry, 2017).

Key:
MyoB complex = assay: immunoprecipitation with GFP-specific antibodies, Western blot: MyoB-GFP; type: binding, P. falciparum; settings: schizont lysate, probed with anti-PfELC antibodies
Description: (§1) Parasite lysates were precleared by incubation with blocked agarose beads for 1 h, and then the supernatant was incubated with GFP-Trap agarose beads for 2 h at 4 °C with end-over-end rotation. […] Finally, the beads were resuspended in 5 volumes of 2× SDS-PAGE sample buffer and boiled for 5 min before fractionation of the proteins by SDS-PAGE.

MTIP = settings: 3D7 schizont or merozoite lysate, PfELC-specific antibodies
MyoA = assay: immunoprecipitation with GFP-specific antibodies, Western blot: MyoA-GFP; type: binding, P. falciparum; settings: schizont lysate, probed with anti-PfELC antibodies
Description: as §1

[1] = circular dichroism of recombinant PfELC; type: physicochemical
Description: Far-UV CD spectra were recorded on a Jasco J-815 spectropolarimeter fitted with a cell holder thermostatted by a CDF-426S Peltier unit. CD measurements were made at a protein concentration of 10 μM PfELC in 25 mM Tris-HCl, pH 8.0, 50 mM NaCl using fused silica cuvettes with a 1-mm path length (Hellma). All spectra were recorded with 0.1 nm resolution and baseline-corrected by subtraction of the buffer spectrum. Secondary structure content was estimated using methods described by Sreerama and Woody ([62]).

[2] = far-UV CD, 10 μM PfELC, 25 mM Tris-HCl pH 8.0, 50 mM NaCl

In the case of essential light chain [PfELC], the “presence in MyoB-GFP immunoprecipitate” value (MyoB complex) is reported as “none was detected associated with the MyoB complex”, the “presence in anti-MTIP immunoprecipitate” value (MTIP) is reported as “present with MTIP in the same complex” and the “presence in MyoA-GFP immunoprecipitate” value (MyoA) is reported as “a 14-kDa protein associated with MyoA in the glideosome complex”. The “effect of calcium on near- or far-UV CD spectrum” value ([1]; 1 mM calcium ions) was “no effect on either the near- or far-UV spectrum”, the turn content [1, 2] was 20% and the α helix content [1, 2] was 32%. The β sheet content [1, 2] was 17%.
